This is an account of results in PMC11171812.

The stoichiometry N is a count of units in the complex or per binding partner.

The assay has as its target recombinant Plasmodium knowlesi lactate dehydrogenase (Plasmodium knowlesi). The experiment in a line: native gel or EMSA; PAGE under native (non-reducing) conditions, 2 ug purified PkLDH in native sample buffer without SDS, 10% polyacrylamide gel without SDS, Coomassie Brilliant Blue R-250; single band between 135 and 180 kDa (monomer ~35.0 kDa on SDS-PAGE).

Consider “recombinant Plasmodium knowlesi lactate dehydrogenase (enzyme)”, for which the stoichiometry N was determined as 4.
